Series [1] concerns the target 32P-labeled mtRNAP (Figure 5C; truncation not stated) (human) (UniProt O00411). The series can be described thus: cross-linking.
In the next series the target is 610Bpa-mtRNAP (human) (UniProt O00411). The series can be described thus: cross-linking.
The series “SEC” deals with the molecule itself. As to the kind of experiment: SEC.
In series [2] the target is Δ150 mtRNAP (human mitochondrial RNA polymerase) (human, UniProt O00411 151-1230). As to the kind of experiment: crystal structure.
Sequence of Δ150 mtRNAP (human mitochondrial RNA polymerase) (O00411 151-1230, stated change not applied): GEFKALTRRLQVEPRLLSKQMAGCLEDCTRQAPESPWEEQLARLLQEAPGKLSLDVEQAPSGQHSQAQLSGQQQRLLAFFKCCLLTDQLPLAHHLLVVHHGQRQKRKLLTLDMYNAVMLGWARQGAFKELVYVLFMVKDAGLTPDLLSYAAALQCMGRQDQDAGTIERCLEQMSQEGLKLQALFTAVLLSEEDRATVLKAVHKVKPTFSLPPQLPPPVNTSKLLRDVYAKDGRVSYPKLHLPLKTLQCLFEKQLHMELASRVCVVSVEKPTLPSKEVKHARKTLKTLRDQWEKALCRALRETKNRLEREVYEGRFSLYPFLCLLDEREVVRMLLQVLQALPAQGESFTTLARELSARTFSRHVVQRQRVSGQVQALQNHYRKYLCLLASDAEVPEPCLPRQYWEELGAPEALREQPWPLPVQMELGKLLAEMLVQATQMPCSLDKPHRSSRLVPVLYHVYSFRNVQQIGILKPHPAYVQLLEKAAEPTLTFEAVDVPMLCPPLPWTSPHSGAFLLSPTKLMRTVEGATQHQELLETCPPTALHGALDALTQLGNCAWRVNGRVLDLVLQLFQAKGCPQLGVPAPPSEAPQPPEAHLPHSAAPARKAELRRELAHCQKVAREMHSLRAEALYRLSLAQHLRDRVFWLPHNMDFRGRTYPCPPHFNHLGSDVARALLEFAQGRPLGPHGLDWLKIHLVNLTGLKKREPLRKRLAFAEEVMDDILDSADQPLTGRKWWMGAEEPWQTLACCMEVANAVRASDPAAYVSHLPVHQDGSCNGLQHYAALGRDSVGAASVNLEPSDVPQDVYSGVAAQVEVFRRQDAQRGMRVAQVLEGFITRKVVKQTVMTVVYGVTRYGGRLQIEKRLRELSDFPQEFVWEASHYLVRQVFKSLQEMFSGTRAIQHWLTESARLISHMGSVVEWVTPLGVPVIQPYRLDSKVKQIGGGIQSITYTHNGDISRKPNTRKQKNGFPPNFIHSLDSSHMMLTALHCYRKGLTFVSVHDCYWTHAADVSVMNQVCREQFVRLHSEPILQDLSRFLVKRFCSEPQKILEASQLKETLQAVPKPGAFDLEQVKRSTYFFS
The series “crystal structure” concerns the molecule itself. The series can be described thus: crystal structure.
The target of series [3] is mtRNAP Δ150;TEFM Δ135 (CTD + linker) (human;human, UniProt O00411;Q96QE5 151-1230;136-360, |). The series can be described thus: crystal structure.
Sequence of mtRNAP Δ150;TEFM Δ135 (CTD + linker) (O00411 151-1230, stated change not applied, one chain of several): as the sequence (O00411 151-1230, stated change not applied) above
The target of a further series is mtRNAP Δ150;TEFM WT (human;human, UniProt O00411;Q96QE5 151-1230;36-360, |). The series can be described thus: size exclusion chromatography. (In general: Size exclusion chromatography separates by hydrodynamic size, large species first.)
Sequence of mtRNAP Δ150;TEFM WT (O00411 151-1230, stated change not applied, one chain of several): as the sequence (O00411 151-1230, stated change not applied) above

Consider nine molecules from paper PMC5798601 (Cell, 2017).

Sequence of 32P-labeled mtRNAP (Figure 5C; truncation not stated) (human) (O00411 42-1230): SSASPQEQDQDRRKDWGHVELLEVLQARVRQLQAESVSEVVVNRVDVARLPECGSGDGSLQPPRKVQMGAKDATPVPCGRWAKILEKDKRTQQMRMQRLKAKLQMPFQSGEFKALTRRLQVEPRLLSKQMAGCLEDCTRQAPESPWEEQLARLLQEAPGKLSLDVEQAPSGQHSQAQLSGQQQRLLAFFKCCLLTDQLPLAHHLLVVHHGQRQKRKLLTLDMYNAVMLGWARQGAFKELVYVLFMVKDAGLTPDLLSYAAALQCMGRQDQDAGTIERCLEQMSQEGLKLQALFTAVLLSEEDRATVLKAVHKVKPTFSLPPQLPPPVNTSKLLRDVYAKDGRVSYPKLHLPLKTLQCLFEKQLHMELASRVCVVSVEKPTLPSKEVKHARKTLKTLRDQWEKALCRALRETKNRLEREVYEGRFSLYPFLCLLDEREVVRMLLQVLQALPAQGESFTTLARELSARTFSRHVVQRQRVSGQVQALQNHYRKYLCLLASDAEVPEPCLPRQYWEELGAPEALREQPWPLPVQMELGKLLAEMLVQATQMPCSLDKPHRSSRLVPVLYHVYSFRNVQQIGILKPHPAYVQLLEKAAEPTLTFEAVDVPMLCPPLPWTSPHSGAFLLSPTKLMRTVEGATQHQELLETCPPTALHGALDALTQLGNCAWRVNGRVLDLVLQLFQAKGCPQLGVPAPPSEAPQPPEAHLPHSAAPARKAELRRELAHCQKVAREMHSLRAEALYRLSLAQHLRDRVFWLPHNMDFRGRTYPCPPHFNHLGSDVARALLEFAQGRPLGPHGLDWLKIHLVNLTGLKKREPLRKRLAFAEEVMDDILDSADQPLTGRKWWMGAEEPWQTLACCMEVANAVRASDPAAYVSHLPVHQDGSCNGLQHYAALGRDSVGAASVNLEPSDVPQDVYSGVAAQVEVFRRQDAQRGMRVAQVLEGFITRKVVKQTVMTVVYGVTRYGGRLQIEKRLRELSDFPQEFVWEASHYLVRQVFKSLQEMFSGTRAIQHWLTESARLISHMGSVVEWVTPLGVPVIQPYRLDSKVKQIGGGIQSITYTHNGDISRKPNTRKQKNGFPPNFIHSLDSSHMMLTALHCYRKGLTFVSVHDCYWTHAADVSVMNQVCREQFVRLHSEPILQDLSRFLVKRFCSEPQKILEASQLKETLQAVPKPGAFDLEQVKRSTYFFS
Sequence of 610Bpa-mtRNAP (human) (O00411 42-609): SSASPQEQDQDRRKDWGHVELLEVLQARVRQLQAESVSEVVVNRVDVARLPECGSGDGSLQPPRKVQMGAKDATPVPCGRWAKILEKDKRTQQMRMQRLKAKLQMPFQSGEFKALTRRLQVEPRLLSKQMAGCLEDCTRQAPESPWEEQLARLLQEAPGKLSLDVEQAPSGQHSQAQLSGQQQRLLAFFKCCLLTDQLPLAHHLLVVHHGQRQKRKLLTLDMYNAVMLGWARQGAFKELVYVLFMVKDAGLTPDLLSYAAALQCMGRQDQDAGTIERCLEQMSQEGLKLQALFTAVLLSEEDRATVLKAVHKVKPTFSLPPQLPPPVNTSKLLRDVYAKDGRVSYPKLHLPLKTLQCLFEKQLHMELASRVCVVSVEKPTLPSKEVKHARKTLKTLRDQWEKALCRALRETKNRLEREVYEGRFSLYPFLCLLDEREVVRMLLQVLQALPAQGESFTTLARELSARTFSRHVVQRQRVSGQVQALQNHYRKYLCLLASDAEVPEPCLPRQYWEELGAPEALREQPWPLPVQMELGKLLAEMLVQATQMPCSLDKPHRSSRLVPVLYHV

“Bpa312 TEFM (from UniProt Q96QE5 36-360) (natural protein)” displayed a cross-linking efficiency in series [1] of more than 30%.
As to “Bpa308 TEFM (from UniProt Q96QE5 36-360) (natural protein)”, the cross-linking efficiency in series [1] was more than 30%.
On the same count and under the same terms, under “Bpa309 TEFM (from UniProt Q96QE5 36-360) (natural protein)” stands more than 30%; under “Bpa310 TEFM (from UniProt Q96QE5 36-360) (natural protein)”, more than 30%.

B1: 32P-labeled TEFM (natural protein)
chain: KSTTPKKITPNVTFCDENAKEPENALDKLFSSEQQASILHVLNTASTKELEAFRLLRGRRSINIVEHRENFGPFQNLESLMNVPLFKYKSTVQVCNSILCPKTGREKRKSPENRFLRKLLKPDIERERLKAVNSIISIVFGTRRIAWAHLDRKLTVLDWQQSDRWSLMRGIYSSSVYLEEISSIISKMPKADFYVLEKTGLSIQNSSLFPILLHFHIMEAMLYALLNKTFAQDGQHQVLSMNRNAVGKHFELMIGDSRTSGKELVKQFLFDSILKADPRVFFPSDKIVHYRQMFLSTELQRVEELYDSLLQAIAFYELAVFDSQP
modifications: 32P-labeled
In the series with 610Bpa-mtRNAP (human), B1 yielded a cross-linking efficiency of 30%.

B2: WT TEFM (human mitochondrial transcription elongation factor) (natural protein, UniProt Q96QE5 36-360, looked up)
chain: B1 chain
Take B2: the “stoichiometry N” value in the series “SEC” came to 2.

B3: Δ135 TEFM (CTD with the inter-domain linker, residues 136-360) (domain or fragment, human, UniProt Q96QE5 136-360, looked up)
chain: PKTGREKRKSPENRFLRKLLKPDIERERLKAVNSIISIVFGTRRIAWAHLDRKLTVLDWQQSDRWSLMRGIYSSSVYLEEISSIISKMPKADFYVLEKTGLSIQNSSLFPILLHFHIMEAMLYALLNKTFAQDGQHQVLSMNRNAVGKHFELMIGDSRTSGKELVKQFLFDSILKADPRVFFPSDKIVHYRQMFLSTELQRVEELYDSLLQAIAFYELAVFDSQP
Turning to B3, the binding result (in series [2]; in “crystal structure”) was “binds” throughout.

B4: EC scaffold NT25HH/TS22HH/RNA14mt (mixed)
DNA 1: GAACATGGTGTAATTATTTCGACGCCAGACGAAC
DNA 2: GTTCGTCTGGCGTGCGCGCCGCTACACCATGTTC
RNA: AGUCUGCGGCGCGC
Turning to B4, the binding result in series [3] was “binds”.

B5: cross-linking scaffold NT19HH/TS16HH/RNA14HH (mixed)
DNA 1: CATGGGGTAACTAGTTCGACGCCAGACG
DNA 2: CGTCTGGCGTGATCACGACTACCCCATG
RNA: UGAUGGUAAUGCUCCUGUCGUGAUC
B5: in the series with mtRNAP Δ150;TEFM WT, the binding result is given as “binds”.

As a reminder, the stoichiometry N is the number of molecules, sites or subunits per partner or assembly.
